Results from publication PMC11099176.

What was measured:
[1] = target: SPP1 tails carrying gp16.1 and lacking gp17 (bacteriophage SPP1) (UniProt O48449)
[2] = target: SPP1 tails lacking gp16.1 and gp17 (bacteriophage SPP1) (UniProt O48449)

B1: gp17 of bacteriophage SPP1, purified (natural protein)
chain: MTWKLASRALQKATVENLESYQPLMEMVNQVTESPGKDDPYPYVVIGDQSSTPFETKSSFGENITMDFHVWGGTTRAEAQDISSRVLEALTYKPLMFEGFTFVAKKLVLAQVITDTDGVTKHGIIKVRFTINNN
infectious particles formed in vitro in SPP1gp17− extract (tails with endogenous gp16.1) against 0.003–20 µM purified gp17; gp17 concentration at the plateau [1]: 6 µM
infectious particles formed in vitro in SPP1gp16.1−-gp17− extract with 20 µM purified gp16.1 added, against purified gp17; gp17 concentration at the plateau [2]: 0.2 µM
